# Measurements published in US20260008817A1, “CYCLIC PEPTIDE OR SALT THEREOF, AND USES THEREOF” (FUJIFILM Corporation, priority 2023, published 2026).
# Positions of bridges follow the written chain, without caps; N, C: chain ends. No end group written: not given here. COCH2 = acetyl group that carries the bridge
# Biological target: T1, Recombinant Human FGFR1 alpha (IIIc) Fc Chimera Protein (Homo sapiens, UniProt P11362)
# T1 construct: purchased R&D systems 658-FR-050
# Experiment: ELISA binding affinity of enzymatically synthesized peptide to FGFR
# Settings: ELISA luminescence signal at 10 nmol/L peptide, SEQ ID NO: 239 standardized to 1; enzyme synthesis product
# In short: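 Cell-free PUREfrex-translated cyclic peptides (Myc/HiBiT-tagged, quantified by HiBiT luminescence) bound 3 h at room temperature to immobilized FGFR1α(IIIc)-Fc, detected with anti-Myc and chemiluminescence. FGFR-specific signal at 10 nmol/L normalized to a reference cyclic peptide and graded A–D.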
# T1 sequence (P11362 with tags, fused parts or gaps limits assumed): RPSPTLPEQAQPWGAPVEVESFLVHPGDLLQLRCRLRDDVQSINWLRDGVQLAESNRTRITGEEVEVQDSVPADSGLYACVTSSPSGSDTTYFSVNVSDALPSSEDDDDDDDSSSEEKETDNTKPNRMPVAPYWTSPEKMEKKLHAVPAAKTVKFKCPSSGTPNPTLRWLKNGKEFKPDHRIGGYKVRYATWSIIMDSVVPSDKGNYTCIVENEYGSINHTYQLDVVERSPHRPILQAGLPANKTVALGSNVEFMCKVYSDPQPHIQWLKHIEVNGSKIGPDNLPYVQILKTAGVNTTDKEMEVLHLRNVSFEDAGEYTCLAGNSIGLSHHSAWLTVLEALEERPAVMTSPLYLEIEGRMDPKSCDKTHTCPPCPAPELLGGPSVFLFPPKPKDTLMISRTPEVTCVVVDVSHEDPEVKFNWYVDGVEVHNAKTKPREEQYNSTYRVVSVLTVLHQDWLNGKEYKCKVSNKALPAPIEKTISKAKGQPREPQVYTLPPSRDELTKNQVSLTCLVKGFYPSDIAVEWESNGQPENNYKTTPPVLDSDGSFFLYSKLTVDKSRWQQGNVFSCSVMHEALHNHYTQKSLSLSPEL
row,Evaluation result of binding affinity to FGFR,Substance
1,A (0.7 or more),300 (ICVYTFDAHAHSLHDALNK(COCH2)V; thioether 2-19 (inferred)) [compound 300]
2,A (0.7 or more),301 (ICVYTFDAHAHSLHDALNK(COCH2)Q; thioether 2-19 (inferred)) [compound 301]
3,A (0.7 or more),302 (ICVYTFDAHAHSLDDALNK(COCH2)I; thioether 2-19 (inferred)) [compound 302]
4,A (0.7 or more),303 (ICVYTFDAHAHSLDDALTK(COCH2)V; thioether 2-19 (inferred)) [compound 303]
5,A (0.7 or more),304 (ICVYTFDAHAHSLDDALTK(COCH2)Q; thioether 2-19 (inferred)) [compound 304]
6,A (0.7 or more),305 (ICVYTFDAHAHSLDDALNK(COCH2)V; thioether 2-19 (inferred)) [compound 305]
7,A (0.7 or more),306 (ICVYTFDAHAHSLDDALNK(COCH2)Q; thioether 2-19 (inferred)) [compound 306]
8,A (0.7 or more),307 (FCVYTFDAHAHSLDAALTK(COCH2)I; thioether 2-19 (inferred)) [compound 307]
9,A (0.7 or more),308 (FCVYTFDAHAHSLHDALTK(COCH2)I; thioether 2-19 (inferred)) [compound 308]
10,A (0.7 or more),309 (FCVYTFDAHAHSLDDALTK(COCH2)I; thioether 2-19 (inferred)) [compound 309]
11,A (0.7 or more),310 (ICVYTFDAHAQSLDAALTK(COCH2)I; thioether 2-19 (inferred)) [compound 310]
12,A (0.7 or more),311 (ICVYTFDAHAQSLHDALTK(COCH2)I; thioether 2-19 (inferred)) [compound 311]
13,A (0.7 or more),312 (ICVYTFDAHAQSLDDALTK(COCH2)I; thioether 2-19 (inferred)) [compound 312]
14,A (0.7 or more),313 (FCVYTFDAHAHSLDAALNK(COCH2)I; thioether 2-19 (inferred)) [compound 313]
15,A (0.7 or more),314 (FCVYTFDAHAHSLHDALNK(COCH2)I; thioether 2-19 (inferred)) [compound 314]
16,A (0.7 or more),315 (FCVYTFDAHAHSLDDALNK(COCH2)I; thioether 2-19 (inferred)) [compound 315]
17,A (0.7 or more),316 (FCVYTFDAHAHSLDAALTK(COCH2)Q; thioether 2-19 (inferred)) [compound 316]
18,A (0.7 or more),317 (FCVYTFDAHAHSLHDALTK(COCH2)Q; thioether 2-19 (inferred)) [compound 317]
19,A (0.7 or more),318 (FCVYTFDAHAHSLDDALTK(COCH2)Q; thioether 2-19 (inferred)) [compound 318]
20,A (0.7 or more),319 (FCVYTFDAHAHSLDAALNK(COCH2)Q; thioether 2-19 (inferred)) [compound 319]
21,A (0.7 or more),320 (FCVYTFDAHAHSLHDALNK(COCH2)Q; thioether 2-19 (inferred)) [compound 320]
22,A (0.7 or more),321 (FCVYTFDAHAHSLDDALNK(COCH2)Q; thioether 2-19 (inferred)) [compound 321]
23,A (0.7 or more),322 (CVYTFDAHAHSLDAALTK(COCH2)I; thioether 1-18 (inferred)) [compound 322]
24,A (0.7 or more),323 (ICVYTFDANAHSLDAALTK(COCH2)I; thioether 2-19 (inferred)) [compound 323]
25,A (0.7 or more),324 (ICVYTFDANAHSLHDALTK(COCH2)I; thioether 2-19 (inferred)) [compound 324]
26,A (0.7 or more),325 (ICVYTFDANAHSLDDALTK(COCH2)I; thioether 2-19 (inferred)) [compound 325]

# Second part, the substance before the results:
row,Substance,Evaluation result of binding affinity to FGFR
1,269 (HCLWQWTPQTHFVKL; Description of Artificial Sequence: Cyclic peptide) [compound 269],A (0.7 or more)
2,270 (QCWWTLQVWSYPFHKH; Description of Artificial Sequence: Cyclic peptide) [compound 270],C (0.1 or more and less than 0.5)
3,271 (LCQLGVYTYVALFYKF; Description of Artificial Sequence: Cyclic peptide) [compound 271],C (0.1 or more and less than 0.5)
4,272 (QCDWVIWQWDPPYIKV; Description of Artificial Sequence: Cyclic peptide) [compound 272],C (0.1 or more and less than 0.5)
5,273 (PCWWATQIWTYPFYKV; Description of Artificial Sequence: Cyclic peptide) [compound 273],C (0.1 or more and less than 0.5)
6,274 (FCIYTFSRESGLLWKQ; Description of Artificial Sequence: Cyclic peptide) [compound 274],A (0.7 or more)
7,275 (LCPLYAWQTLYQYGWK(COCH2)V; thioether 2-16 (inferred)) [compound 275],A (0.7 or more)
8,276 (ECIYTFDPQRHPVLVK(COCH2)V; thioether 2-16 (inferred)) [compound 276],C (0.1 or more and less than 0.5)
9,277 (TCPVWAWHQAFQFGWK(COCH2)I; thioether 2-16 (inferred)) [compound 277],C (0.1 or more and less than 0.5)
10,278 (ICPLYGDQGQAWQYGWK(COCH2)L; thioether 2-17 (inferred)) [compound 278],A (0.7 or more)
11,279 (QCLQKVGYLLWQFGWSK(COCH2)I; thioether 2-17 (inferred)) [compound 279],C (0.1 or more and less than 0.5)
12,280 (PCPVWGDYGAVHQYGWK(COCH2)V; thioether 2-17 (inferred)) [compound 280],A (0.7 or more)
13,281 (YCVYTFDAQDVWRPLRK(COCH2)V; thioether 2-17 (inferred)) [compound 281],C (0.1 or more and less than 0.5)
14,282 (FCIYSWNWNNLVRPEFRK(COCH2)V; thioether 2-18 (inferred)) [compound 282],C (0.1 or more and less than 0.5)
15,283 (WCWLIPTPWPGVYQFSPK(COCH2)A; thioether 2-18 (inferred)) [compound 283],B (0.5 or more and less than 0.7)
16,284 (QCRITLLTIYQWKYAWHK(COCH2)E; thioether 2-18 (inferred)) [compound 284],C (0.1 or more and less than 0.5)

row,Substance,Evaluation result of binding affinity to FGFR
1,285 (QCSWWYVQVWTYPFHVLK(COCH2)G; thioether 2-18 (inferred)) [compound 285],C (0.1 or more and less than 0.5)
2,286 (HCLWSLHSFYTFKAWAK(COCH2)I; thioether 2-17 (inferred)) [compound 286],C (0.1 or more and less than 0.5)
3,287 (YCPFEVYSWWVPKWHK(COCH2)I; thioether 2-16 (inferred)) [compound 287],C (0.1 or more and less than 0.5)
4,288 (LCHLVFQFNPDTGKLWPK(COCH2)Y; thioether 2-18 (inferred)) [compound 288],C (0.1 or more and less than 0.5)
5,289 (DCPWSVFSWYIPIYNK(COCH2)I; thioether 2-16 (inferred)) [compound 289],C (0.1 or more and less than 0.5)
6,290 (FCVYTFDANAQSLDDALNK(COCH2)Q; thioether 2-19 (inferred)) [compound 290],A (0.7 or more)
7,291 (ICVYTFDAHAHSLDDALTK(COCH2)I; thioether 2-19 (inferred)) [compound 291],A (0.7 or more)
8,"292 (ICVYTFDAHAHSLDAALNKI; not fully specified (residue 19, bridges)) [compound 292]",A (0.7 or more)
9,293 (ICVYTFDAHAHSLDAALTK(COCH2)V; thioether 2-19 (inferred)) [compound 293],A (0.7 or more)
10,294 (ICVYTFDAHAHSLDAALTK(COCH2)Q; thioether 2-19 (inferred)) [compound 294],A (0.7 or more)
11,"295 (ICVYTFDAHAHSLDAALNKV; not fully specified (residue 19, bridges)) [compound 295]",A (0.7 or more)
12,"296 (ICVYTFDAHAHSLDAALNKQ; not fully specified (residue 19, bridges)) [compound 296]",A (0.7 or more)
13,297 (ICVYTFDAHAHSLHDALNK(COCH2)I; thioether 2-19 (inferred)) [compound 297],A (0.7 or more)
14,298 (ICVYTFDAHAHSLHDALTK(COCH2)V; thioether 2-19 (inferred)) [compound 298],A (0.7 or more)
15,299 (ICVYTFDAHAHSLHDALTK(COCH2)Q; thioether 2-19 (inferred)) [compound 299],A (0.7 or more)
